Reference: patent US12269859B2, “Synthetic immune receptors and methods of use thereof” (Angeles Therapeutics, Inc., priority 2016, dated 2025)

B1: 101416-A05 (protein)
chain: MALPVTALLLPLALLLHAARPQSVLTQPPSVSGAPGQRVTISCTGSSSNIGAGFDVHWYQQLPGTAPKLLIYGNSNRPSGVPDRFSGSKSGTSASLAITGLQAEDEADYYCQSYDSSLSGYVFGTGTKVTVLGLEEQKLISEEDLGSGEDLKNVFPPEVAVFEPSKAEIAHTQKATLVCLATGFYPDHVELSWWVNGKEVHSGVCTDPQPLKEQPALNDSRYCLSSRLRVSATFWQNPRNHFRCQVQFYGLSENDEWTQDRAKPVTQIVSAEAWGRADCGITSASYHQGVLSATILYEILLGKATLYAVLVSALVLMAMVKRKDSRGRAKRSGSGATNFSLLKQAGDVEENPGPTSMDWIWRILFLVGAATGAHSFEQVQLVQSGAEVKKPGASVKVSCKASGYTFTDYYMHWVRQAPGQRLEWMGWINPNSGGTNYAQKFQDRITVTRDTSSNTGYMELTRLRSDDTAVYYCARSPYSGVLDKWGQGTLVTVSSTREQKLISEEDLGSGIQNPDPAVYQLRDSKSSDKSVCLFTDFDSQTNVSQSKDSDVYITDKCVLDMRSMDFKSNSAVAWSNKSDFACANAFNNSIIPEDTFFPSSDVPCDVKLVEKSFETDTNLNFQNLSVIGFRILLLKVAGFNLLMTLRLWSSRAKRSGSGVKQTLNFDLLKLAGDVESNPGPSRGHMTEYKPTVRLATRDDVPRAVRTLAAAFADYPATRHTVDPDRHIERVTELQELFLTRVGLDIGKVWVADDGAAVAVWTTPESVEAGAVFAEIGPRMAELSGSRLAAQQQMEGLLAPHRPKEPAWFLATVGVSPDHQGKGLGSAVVLPGVEAAERAGVPAFLETSAPRNLPFYERLGFTVTADVEVPEGPRTWCMTRKPGA
modifications: Synthetic Immune Receptor (SIR)
B2: 012417-J04 (protein)
chain: MALPVTALLLPLALLLHAARPLEGKPIPNPLLGLDSTGSGEDLKNVFPPEVAVFEPSKAEIAHTQKATLVCLATGFYPDHVELSWWVNGKEVHSGVCTDPQPLKEQPALNDSRYCLSSRLRVSATFWQNPRNHFRCQVQFYGLSENDEWTQDRAKPVTQIVSAEAWGRADCGITSASYHQGVLSATILYEILLGKATLYAVLVSALVLMAMVKRKDSRGRAKRSGSGATNFSLLKQAGDVEENPGPTSMALPVTALLLPLALLLHAARPSTVMTQSPDSLAVSLGERATINCKSSQSNSNDVAWYQQKPGQSPKVLIYFASNRYSGVPDRFSGSGYGTDFTLTISSLQAEDVAVYFCQQDYSSPLTFGAGTKLELKRADAGGGGSGGGGSGGGGSQIQLVQSGSELKKPGASVKVSCKASGYTFTNFGVNWVRQAPGKGLEWMGWINTYTGEPSYAQGFTGRFVFSLDASVSTAYLQISSLKAEDTATYFCTRRTNYYGTSYYYAMDYWGQGTTVTVSSAKTTTREQKLISEEDGSGIQNPDPAVYQLRDSKSSDKSVCLFTDFDSQTNVSQSKDSDVYITDKCVLDMRSMDFKSNSAVAWSNKSDFACANAFNNSIIPEDTFFPSSDVPCDVKLVEKSFETDTNLNFQNLSVIGFRILLLKVAGFNLLMTLRLWSSRAKRSGSGVKQTLNFDLLKLAGDVESNPGPSRGHMTEYKPTVRLATRDDVPRAVRTLAAAFADYPATRHTVDPDRHIERVTELQELFLTRVGLDIGKVWVADDGAAVAVWTTPESVEAGAVFAEIGPRMAELSGSRLAAQQQMEGLLAPHRPKEPAWFLATVGVSPDHQGKGLGSAVVLPGVEAAERAGVPAFLETSAPRNLPFYERLGFTVTADVEVPEGPRTWCMTRKPGA

Test system: target antigen-expressing cell line
Test: Jurkat NFAT-GFP assay, coculture with target cell lines expressing the respective target antigen (summary Table 10A)
Format: cell-based, human
Design: key: The signs +/−, +, 2+ etc. after the name of the cell lines indicate the relative degree of positivity on the Jurkat-NFAT-GFP assay as measured by the % GFP positive cells; +: relative degree of positivity on the Jurkat-NFAT-GFP assay as measured by the % GFP positive cells; 2+: relative degree of positivity on the Jurkat-NFAT-GFP assay as measured by the % GFP positive cells
Settings: relative % GFP positive cells
How it was run: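 Jurkat cells carrying an NFAT-site IL-2 promoter driving GFP were lentivirally transduced with SIRs, puromycin-selected, then cocultured with antigen-expressing target cells at E:T about 1:2 for about 4–18 hours. GFP induction was read by flow cytometry as % GFP-positive cells versus parental Jurkat-NFAT-GFP.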

Row | Molecule | NFAT-GFP ASSAY Positive Cell lines: U266 (SIR-expressing Jurkat-NFAT-GFP cells cocultured with U266) | NFAT-GFP ASSAY Positive Cell lines: RAJI (SIR-expressing Jurkat-NFAT-GFP cells cocultured with RAJI)
1 | B1 | U266 (+) | –
2 | B2 | – | RAJI (+)
